# Source: article PMC4197961 (Genes & Development, 2014)
# Ends that are not written are not given here. Me2 = dimethyl (dimethyl-lysine)
# T1: KDM2A N186A (UniProt Q9Y2K7 1-1162, N186A)
# T1 sequence (looked up): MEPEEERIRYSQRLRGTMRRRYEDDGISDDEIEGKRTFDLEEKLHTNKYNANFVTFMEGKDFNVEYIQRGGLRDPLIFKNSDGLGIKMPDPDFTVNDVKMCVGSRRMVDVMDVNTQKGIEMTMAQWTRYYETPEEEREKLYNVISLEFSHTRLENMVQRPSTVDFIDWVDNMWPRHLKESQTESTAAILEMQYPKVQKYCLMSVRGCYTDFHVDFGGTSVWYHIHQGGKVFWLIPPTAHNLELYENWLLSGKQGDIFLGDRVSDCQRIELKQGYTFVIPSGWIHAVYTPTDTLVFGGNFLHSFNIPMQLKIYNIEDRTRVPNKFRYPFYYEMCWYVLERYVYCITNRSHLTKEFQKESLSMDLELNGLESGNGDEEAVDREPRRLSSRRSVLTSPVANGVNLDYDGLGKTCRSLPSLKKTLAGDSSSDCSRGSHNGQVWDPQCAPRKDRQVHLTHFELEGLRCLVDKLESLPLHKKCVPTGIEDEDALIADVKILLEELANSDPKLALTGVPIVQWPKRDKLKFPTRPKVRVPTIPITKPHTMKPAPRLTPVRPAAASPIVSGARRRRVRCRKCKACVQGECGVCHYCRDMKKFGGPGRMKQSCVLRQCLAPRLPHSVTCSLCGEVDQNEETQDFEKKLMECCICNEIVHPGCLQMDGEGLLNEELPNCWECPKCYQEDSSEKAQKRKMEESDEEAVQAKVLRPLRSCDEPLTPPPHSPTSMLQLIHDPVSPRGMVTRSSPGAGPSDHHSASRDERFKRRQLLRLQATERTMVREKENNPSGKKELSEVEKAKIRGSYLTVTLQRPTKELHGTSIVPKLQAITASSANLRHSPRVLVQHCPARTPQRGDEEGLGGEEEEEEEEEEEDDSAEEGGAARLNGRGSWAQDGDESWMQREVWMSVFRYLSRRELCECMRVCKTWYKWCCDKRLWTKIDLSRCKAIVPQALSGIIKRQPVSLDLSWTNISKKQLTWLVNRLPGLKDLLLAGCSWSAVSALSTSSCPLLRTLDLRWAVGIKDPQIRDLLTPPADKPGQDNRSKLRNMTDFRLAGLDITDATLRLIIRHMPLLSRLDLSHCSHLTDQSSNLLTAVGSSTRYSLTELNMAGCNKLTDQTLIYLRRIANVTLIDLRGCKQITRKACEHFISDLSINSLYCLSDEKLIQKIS
# T2: KDM2A K323A/F324A (UniProt Q9Y2K7 1-1162, K323A | F324A)
# T2 sequence (looked up): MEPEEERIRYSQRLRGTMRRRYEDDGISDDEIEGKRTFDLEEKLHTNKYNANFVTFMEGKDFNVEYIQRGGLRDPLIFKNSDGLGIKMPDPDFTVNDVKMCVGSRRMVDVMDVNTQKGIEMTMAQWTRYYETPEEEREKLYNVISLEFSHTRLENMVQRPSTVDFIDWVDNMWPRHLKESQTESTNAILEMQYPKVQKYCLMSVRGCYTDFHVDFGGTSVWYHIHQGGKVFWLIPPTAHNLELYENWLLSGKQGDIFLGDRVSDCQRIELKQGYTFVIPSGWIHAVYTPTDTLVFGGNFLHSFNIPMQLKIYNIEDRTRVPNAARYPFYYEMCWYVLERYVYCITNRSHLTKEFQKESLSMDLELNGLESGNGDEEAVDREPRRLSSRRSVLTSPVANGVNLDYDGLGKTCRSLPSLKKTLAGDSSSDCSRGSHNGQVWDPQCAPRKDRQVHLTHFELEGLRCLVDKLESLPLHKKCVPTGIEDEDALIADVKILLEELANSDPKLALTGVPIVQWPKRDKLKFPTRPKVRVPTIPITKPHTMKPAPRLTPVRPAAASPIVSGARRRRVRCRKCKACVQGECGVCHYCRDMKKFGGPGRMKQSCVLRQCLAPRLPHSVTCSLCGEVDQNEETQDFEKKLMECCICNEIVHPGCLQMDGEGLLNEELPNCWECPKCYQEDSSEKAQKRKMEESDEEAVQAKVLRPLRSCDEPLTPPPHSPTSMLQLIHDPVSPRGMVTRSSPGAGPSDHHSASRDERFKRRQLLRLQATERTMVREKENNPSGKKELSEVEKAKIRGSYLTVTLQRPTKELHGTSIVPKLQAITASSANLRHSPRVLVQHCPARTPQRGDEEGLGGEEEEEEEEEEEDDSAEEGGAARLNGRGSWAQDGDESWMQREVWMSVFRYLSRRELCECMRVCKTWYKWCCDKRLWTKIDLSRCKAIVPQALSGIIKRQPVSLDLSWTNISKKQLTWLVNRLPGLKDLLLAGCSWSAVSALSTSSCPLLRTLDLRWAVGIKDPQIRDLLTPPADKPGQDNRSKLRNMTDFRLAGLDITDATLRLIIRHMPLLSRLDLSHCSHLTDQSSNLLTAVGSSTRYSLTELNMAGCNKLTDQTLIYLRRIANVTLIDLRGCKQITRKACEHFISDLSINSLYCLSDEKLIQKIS
# Columns and labels:
# [1] = molecular target: truncated KDM2A construct (36–517) lacking the 1–35 and 365–449 peptide segments (UniProt Q9Y2K7)
# KDM2A N186A = molecular target: T1, KDM2A N186A; assay: cell-based or functional assay
# KDM2A K323A/F324A = molecular target: T2, KDM2A K323A/F324A; assay: cell-based or functional assay
demethylation of the mutant H3K36me2 peptide by wild-type KDM2A in vitro [1],"H3K36me2 demethylation activity in vitro, fluorescence-based assay (KDM2A N186A)","H3K36me2 demethylation activity in vitro, fluorescence-based assay (KDM2A K323A/F324A)",Molecule
< 2 fold,,,H3K36me2 peptide Y41A
,~3 fold reduction,~3 fold reduction,APATGGVK(Me2)KPHRY [H3(A29–Y41)K36me2 peptide]
